Apparent KD of DNJ-13 from titration of the steady-state ATPase activity, standard buffer, 25°C and apparent KD of DNJ-13 from titration of the steady-state ATPase activity of 1 µM CeHsc70-Δ512 in the presence of 2 µM BAG-1, standard buffer, 25°C data for one substance are collected here from publication PMC3315512.

The target of test [1] is CeHsc70-Δ545 (half-lid deletion of CeHsc70) (C. elegans) (UniProt P09446).
The target in test [2] is CeHsc70-Δ512 (lidless CeHsc70) (C. elegans) (UniProt P09446).
Chain of CeHsc70-Δ512 (lidless CeHsc70) (C. elegans) (P09446 1-512, stated change not applied): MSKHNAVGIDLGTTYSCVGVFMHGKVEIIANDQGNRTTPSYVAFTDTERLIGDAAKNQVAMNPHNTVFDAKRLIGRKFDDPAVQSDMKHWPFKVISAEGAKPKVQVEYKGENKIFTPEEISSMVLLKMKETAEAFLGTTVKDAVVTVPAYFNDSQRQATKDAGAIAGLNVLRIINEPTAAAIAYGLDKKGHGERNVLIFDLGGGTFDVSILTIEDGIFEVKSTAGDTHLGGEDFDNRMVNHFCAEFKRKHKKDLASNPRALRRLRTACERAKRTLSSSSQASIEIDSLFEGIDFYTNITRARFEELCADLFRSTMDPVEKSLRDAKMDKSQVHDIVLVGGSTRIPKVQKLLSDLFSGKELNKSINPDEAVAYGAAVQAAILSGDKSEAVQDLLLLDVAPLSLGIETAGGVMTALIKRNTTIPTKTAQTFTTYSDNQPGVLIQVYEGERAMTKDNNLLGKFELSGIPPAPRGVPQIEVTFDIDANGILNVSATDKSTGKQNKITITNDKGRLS

Chain of DNJ-13 (C. elegans, unlabelled), Q20774 1-331 (natural protein) (Q20774 entry or part of it): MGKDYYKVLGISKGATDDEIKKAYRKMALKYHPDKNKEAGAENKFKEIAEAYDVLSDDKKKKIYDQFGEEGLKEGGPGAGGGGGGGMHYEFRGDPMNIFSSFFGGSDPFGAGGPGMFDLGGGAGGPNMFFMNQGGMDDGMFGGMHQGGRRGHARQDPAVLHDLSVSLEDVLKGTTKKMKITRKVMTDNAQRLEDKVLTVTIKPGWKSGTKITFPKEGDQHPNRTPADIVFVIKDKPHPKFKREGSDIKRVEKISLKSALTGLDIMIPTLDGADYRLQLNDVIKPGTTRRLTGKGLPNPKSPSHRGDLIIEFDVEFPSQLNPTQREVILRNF
Chain of CeHsc70-Δ545 (half-lid deletion of CeHsc70) (C. elegans) (P09446 1-545, stated change not applied): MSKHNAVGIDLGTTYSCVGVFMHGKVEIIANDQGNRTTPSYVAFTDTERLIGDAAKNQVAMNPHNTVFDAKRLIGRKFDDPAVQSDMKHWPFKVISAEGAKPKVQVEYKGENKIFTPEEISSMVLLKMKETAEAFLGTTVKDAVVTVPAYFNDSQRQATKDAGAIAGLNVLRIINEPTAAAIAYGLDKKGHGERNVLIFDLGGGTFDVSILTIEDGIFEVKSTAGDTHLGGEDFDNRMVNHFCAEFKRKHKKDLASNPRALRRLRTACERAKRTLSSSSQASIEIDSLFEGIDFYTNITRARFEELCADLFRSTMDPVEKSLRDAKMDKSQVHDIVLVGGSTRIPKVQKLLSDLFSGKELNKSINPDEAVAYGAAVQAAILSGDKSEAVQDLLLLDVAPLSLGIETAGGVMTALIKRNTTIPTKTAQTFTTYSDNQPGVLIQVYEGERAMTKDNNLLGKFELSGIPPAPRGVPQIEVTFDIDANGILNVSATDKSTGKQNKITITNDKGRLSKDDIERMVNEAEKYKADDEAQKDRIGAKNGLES

Regarding “DNJ-13 (C. elegans, unlabelled), Q20774 1-331 (natural protein)”, in test [1], the apparent KD of DNJ-13 from titration of the steady-state ATPase activity, standard buffer, 25°C came to 4200 nM. Moreover, the apparent KD of DNJ-13 from titration of the steady-state ATPase activity of 1 µM CeHsc70-Δ512 in the presence of 2 µM BAG-1, standard buffer, 25°C in test [2] came to 1200 nM.
